From patent US20110052565A1 (NATIONAL RESEARCH COUNCIL OF CANADA, published 2011)

Experiments:
[1] = target: T1, porcine pancreatic α-amylase (porcine, UniProt P00690 16-511); assay: phage ELISA, round 3 of heat denaturation panning; VH displayed on phage; member by Table 2, column R3
T1 construct: Bought (Sigma); The source is named only for the ELISA with soluble VHs; the panning and phage ELISA paragraphs say only α-amylase; also called a-amylase
T1 sequence (looked up): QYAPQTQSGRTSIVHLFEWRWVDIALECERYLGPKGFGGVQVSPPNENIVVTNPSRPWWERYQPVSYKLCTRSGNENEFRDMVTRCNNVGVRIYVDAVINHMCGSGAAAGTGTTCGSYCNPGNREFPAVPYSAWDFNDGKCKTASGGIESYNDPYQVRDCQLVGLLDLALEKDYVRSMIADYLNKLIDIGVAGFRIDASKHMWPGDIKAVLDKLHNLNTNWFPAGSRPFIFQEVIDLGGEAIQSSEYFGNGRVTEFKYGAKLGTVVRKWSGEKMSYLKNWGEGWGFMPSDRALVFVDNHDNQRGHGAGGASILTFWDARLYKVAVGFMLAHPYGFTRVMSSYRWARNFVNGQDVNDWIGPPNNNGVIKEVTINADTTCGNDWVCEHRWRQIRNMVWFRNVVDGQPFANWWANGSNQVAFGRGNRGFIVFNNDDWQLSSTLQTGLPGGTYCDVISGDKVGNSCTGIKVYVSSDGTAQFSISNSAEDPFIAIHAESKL
Protocol: For selection by heat denaturation, input phage in a multivalent display format was used (i.e., the phages were produced by using hyperphage for superinfection). The input phage was heated at 80° C. for 10 min, cooled at 4° C. for 20 min, centrifuged at maximum speed for 2 min in a microfuge and the supernatant was added to antigen-coated wells for binding. Three rounds of panning against α-amylase by the heat denaturation method were performed. A non-treatment panning was also carried out in parallel as control. […] Monoclonal Phage ELISA on single colonies was performed (Arbabi-Ghahroudi et al., 2009). ELISA-positive clones were subjected to DNA sequencing to identify their VHs (Arbabi-Ghahroudi et al., 2009). Isoelectric points, pIs, of the VHs were determined using the software Laser gene v6.0 (DNASTAR, Inc., Madison, Wis.).

[2] = target: T1, porcine pancreatic α-amylase; assay: phage ELISA, round 4 of heat denaturation panning; VH displayed on phage; member by Table 2, column R4
bovine serum albumin = target: T2, bovine serum albumin (bovine, UniProt P02769 25-607); assay: ELISA, immobilized BSA, His6-tagged VH detected with anti-His-IgG/HRP (FIG. 9A)
T2 construct: also called BSA
T2 sequence (P02769 25-607 limits assumed): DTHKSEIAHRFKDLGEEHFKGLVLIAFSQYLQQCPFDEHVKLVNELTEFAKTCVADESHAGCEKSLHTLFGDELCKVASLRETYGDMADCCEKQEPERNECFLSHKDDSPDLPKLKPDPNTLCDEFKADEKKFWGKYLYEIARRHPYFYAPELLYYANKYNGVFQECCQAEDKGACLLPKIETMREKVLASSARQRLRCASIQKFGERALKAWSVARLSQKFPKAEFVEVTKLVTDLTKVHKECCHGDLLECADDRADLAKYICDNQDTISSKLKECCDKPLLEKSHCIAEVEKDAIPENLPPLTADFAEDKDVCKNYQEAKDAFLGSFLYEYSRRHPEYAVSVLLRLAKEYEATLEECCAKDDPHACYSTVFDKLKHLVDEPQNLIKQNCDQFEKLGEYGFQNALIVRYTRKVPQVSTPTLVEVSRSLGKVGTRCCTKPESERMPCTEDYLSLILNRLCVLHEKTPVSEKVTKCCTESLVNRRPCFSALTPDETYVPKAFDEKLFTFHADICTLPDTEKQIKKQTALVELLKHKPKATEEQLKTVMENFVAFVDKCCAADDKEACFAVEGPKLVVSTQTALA

[3] = target: T1, porcine pancreatic α-amylase; assay: ELISA, immobilized porcine pancreatic α-amylase, His6-tagged VH, anti-His-IgG/HRP
Protocol: To assess binding of VHs to a-amylase by ELISA, Maxisorp™ microtiter plates (Nunc) were coated with 100 μL of 10 μg/mL porcine pancreatic α-amylase (Sigma, Oakville, ON, Canada) in PBS overnight at 4° C. After blocking with 3% bovine serum albumin (300 μL) for 2 h at 37° C. and subsequent removal of blocking agent, 100 μL His₆-tagged VHs at concentrations of a few μM were added, followed by incubation for 2 h at 37° C. Wells were washed 5× with PBST and 100 μL rabbit anti-His-IgG/horse radish peroxidase (HRP) conjugate (Bethyl Laboratories, Inc., Montgomery, Tex.) was added at a dilution of 1:5000. The wells were then incubated for 1 h at 37° C. After washing the wells with PBST, 100 μL […] substrate (KPL, Gaithersburg, Md.) was added and the reaction, seen as color development, was stopped after 5 min by adding 100 μL of 1 M phosphoric acid. Absorbance values were measured at a wavelength of 450 nm using a microtiter plate reader. […] Assays were performed in duplicates.

protein A [4] = target: T3, protein A (UniProt P38507 37-477); assay: SPR (Biacore 3000), protein A immobilized; KD of native VH over KD of heat-denatured/cooled VH, unfolded at 5 µM
T3 construct: Immobilized unconjugated on a CM5 chip in SPR; used as HRP conjugate in the ELISA; also called protein A/HRP conjugate; horseradish peroxidase-protein A conjugate
Protocol: (§1) Immobilizations were carried out at a protein concentration of 50 μg/mL in 10 mM acetate buffer pH 4.5 using amine coupling kit supplied by the manufacturer. AD VHs were passed though Superdex™ 75 column (GE Healthcare) and the monomeric species were collected for refolding efficiency experiments. To obtain refolding efficiency values, VHs were incubated at 85° C. for 20 min at the concentration of 0.5 and 5 μM and were cooled to room temperature for 30 min. The VHs were centrifuged at 16,000 g in a microfuge for 5 min at 22° C. to pellet and remove any possible aggregates. […] The surfaces were washed thoroughly with the running buffer for regeneration. Refolding efficiencies were calculated from the amounts bound at steady state. Data were analyzed with BIAevaluation 4.1 software.

protein A [5] = target: T3, protein A; assay: SPR (Biacore 3000), protein A immobilized; KD of native VH over KD of heat-denatured/cooled VH, unfolded at 0.5 µM
Protocol: as §1

[6] = target: T1, porcine pancreatic α-amylase; assay: told in the legend of the α-amylase inhibition figure (FIG. 10)
Protocol: Briefly, the enzyme at a final concentration of 1.5 μg/mL in 0.1% casein, 150 mM NaCl, 2 mM CaCl₂, 50 mM Tris-HCl pH 7.4 was preincubated with various concentrations of purified monomeric anti-α-amylase VHs at room temperature for 1 h (total volume: 50 μL). The mixture was split in two ELISA wells and to each well 75 μL of substrate solution (0.2 mM 2-chloro-4-nitrophenyl maltotrioside, 150 mM NaCl, 2 mM CaCl₂, 50 mM Tris-HCl pH 7.4) was added. […] The progress of reactions was monitored continuously at 25° C. by measuring the change in absorbance of reaction solutions at 405 nm (ΔA405 nm) using a PowerWave 340 microplate spectrophotometer (BioTek Instruments, Inc. Winooski, Vt.). […] The VHs was thus analyzed by ELISA.

B1: huVHAm315 (other)
VH: QVQLVESGGGLIKPGGSLRLSCAASGDMFSSEGMAWVRQAPGKGLEWVSAISSSGGSTYYADSVKGRFTISRDNSKNTVYLQMNSLRAEDTAVYYCVAAPTTCTSHNCAEPFRSWGQETMVTVSS
notes: Human VH single-domain antibody, soluble, amber codon replaced by Glu; In the phage ELISA rows the same VH stood on phage (pIII fusion); not shown: C-terminal c-Myc-His6 tag from vector pSJF2H
binding result [1]: binds

B2: huVHAm431 (other)
VH: QVQLVESGGGLIKPGGSLRLSCAASGYTVSSECMGWVRQAPGKGLEWVSAISSSGGSTYYADSVKGRFTISRDNSKNTVYLQMNSLRAEDTAVYYCVRDSKNCHDKDCTRPYCSWGQGTMVTVSS
notes: Human VH single-domain antibody, soluble; In the phage ELISA rows the same VH stood on phage (pIII fusion); not shown: C-terminal c-Myc-His6 tag from vector pSJF2H
binding result [2]: binds

B3: huVHAm309 (other)
VH: QVQLVESGGGLIKPGGSLRLSCAASGVNFSNEGMAWVRQAPGKGLEWVSAISSSGGSTYYADSVKGRFTISRDNSKNTVYLQMNSLRAEDTAVYYCVTAQRACANSPCPGSITSWGQETMVTVSS
notes: as for B1
binding result (bovine serum albumin): no binding
binding result [3]: binds
TRE (%) (ratio of KDn to KDref) (protein A [4]): 93%
TRE (%) (ratio of KDn to KDref) (protein A [5]): 94%

B4: huVHAm416 (other)
VH: QVQLVESGGGLIKPGGSLRLSCAASGVSFTDDCMAWVRQAPGKGLEWVSAISSSGGSTYYADSVKGRFTISRDNSKNTVYLQMNSLRAEDTAVYYCVADHTQCRQPECESQLCSWGQGTMVTVSS
notes: as for B1
binding result (bovine serum albumin): no binding
binding result [3]: binds
TRE (%) (ratio of KDn to KDref) (protein A [4]): 97%
TRE (%) (ratio of KDn to KDref) (protein A [5]): 100%

B5: huVHAm316 (other)
VH: QVQLVESGGGLIKPGGSLRLSCAASGDRFTYESMGWVRQAPGKGLEWVSAISSSGGSTYYADSVKGRFTISRDNSKNTVYLQMNSLRAEDTAVYYCVALETACTRPACAHTPRFWGQGTMVTVSS
notes: as for B1
binding result [1]: binds

B6: huVHAm420 (other, not shown: small tags and cut ends)
VH: QVQLVESGGGLIKPGGSLRLSCAASGDRFSYEDMAWVPQAPGKGLEWVSAISSSGGSTYYADSVKGRFTISRDNSKNTVYLQMNSLRAEDTAVYYCVATEESCPEGNCPPPRRSWGQETMVTVSS
notes: amber codon read as Glu in E. coli TG1
binding result [2]: binds

B7: huVHAm427 (other)
VH: QVQLVESGGGLIKPGGSLRLSCAASGVTLSPECMAWVRQAPGKGLEWVSAISSSGGSTYYADSVKGRFTISRDNSKNTVYLQMNSLRAEDTAVYYCVSCEGENAFWGQGTMVTASS
notes: as for B1
binding result [2]: binds

B8: huVHAm305 (other, not shown: small tags and cut ends)
VH: QVQLVESGGGLIKPGGSLRLSCAASGYRFNNEVMGWVRQAPGKGLEWVSAISSSGGSTYYADSVKGRFTISRDNSKNTVYLQMNSLRAEDTAVYYCVTSTPACNQDKCERWRPSWGQGTMVTASS
notes: as for B6
binding result [1]: binds

B9: huVHAm311 (other, not shown: small tags and cut ends)
VH: QVQLVESGGGLIKPGGSLRLSCAASGFRVTPECMTWVRQAPGKGLEWVSAISSSGGSTYYADSVKGRFTISRDNSKNTVYLQMNSLRAEDTAVYYCVRHEVECPTEQCPFHCPSWGQGTMVTVSS
notes: as for B6
binding result [1]: binds

B10: huVHAm428 (other)
VH: QVQLVESGGGLIKPGGSLRLSCAASGFSLSDDCMGWVRQAPGKGLEWVSAISSSGGSTYYADSVKGRFTISRDNSKNTVYLQMNSLRAEDTAVYYCVTGNQACKHEPWPDEALLLGPRDNVTVSS
notes: as for B1
binding result (bovine serum albumin): no binding
binding result [3]: binds
TRE (%) (ratio of KDn to KDref) (protein A [4]): 86%
TRE (%) (ratio of KDn to KDref) (protein A [5]): 89%

B11: huVHAm301 (other, not shown: small tags and cut ends)
VH: QVQLVESGGGLIKPGGSLRLPCAASGFRISHEGMGWVRQAPGKGLEWVSAISSSGGSTYYADSVKGRFTISRDNSKNTAYLQMNSLRAEDTAVYYCVAYNEECTKPSCHTKARSWGQGTMVTVSS
notes: as for B6
binding result [1]: binds

B12: huVHAm412 (other, not shown: small tags and cut ends)
VH: QVQLVESGGGLIKPGGSLRLSCAASGDMLSAECMGWVRQAPGKGLEWVSAISSSGGSTYYADSVKGRFTISRDNSKNTVYLQMNSLRAEDTAVYYCVAKPYHCAVQGTMVTVSS
notes: as for B6
binding result [2]: binds

B13: huVHAm430 (other, not shown: small tags and cut ends)
VH: QVQLVESGGGLIKPGGSLRLSCAASGDRVSPEDMAWVRQAPGKGLEWVSAISSSGGSTYYADSVKGRFTISRDNSKNTVYLQMNSLRAEDTAVYYCVTSGVPSGSFWGQETMVTVSS
notes: as for B6
binding result [2]: binds

B14: huVHAm303 (other, not shown: small tags and cut ends)
VH: QVQLVESGGGLIKPGGSLRLSCAASGFRFSYEVMGWVRQAPGKGLEWVSAISSSGGSTYYADSVKGRFTISRDNSKNTVYLQMNSLRAEDTAVYYCVTPKVDCETHPCRERPYFWGQGTMVTVSS
notes: as for B6
binding result [1]: binds

B15: huVHAm406 (other, not shown: small tags and cut ends)
VH: QVQLVESGGGLIKPGGSLRLSCAASGFSFTPECMGWVRQAPGKGLEWVSAISSSGGSTYYADSVKGRFTISRDNSKNTVYLQMNSLRAEDTAVYYCVGHKNNCPGQGTMVTVSS
notes: as for B6
binding result [2]: binds

B16: huVHAm302 (other)
VH: QVQLVESGGGLIKPGGSLRLSCAASGDTVSDESMTWVRQAPGKGLEWVSAISSSGGSTYYADSVKGRFTISRDNSKNTVYLQMNSLRAEDTAVYYCVTDNRSCQTSLCTSTTRSWGQGTMVTVSSGSEQKLSEEDLNHHHHHH
modifications: N-terminus pyroglutamine (pyroQ)
notes: Human VH single-domain antibody, soluble with c-Myc-His6 tag, amber codon at position 32 replaced by Glu; In the phage ELISA rows the same VH stood on phage (pIII fusion)
binding result [6]: binds

B17: huVHAm304 (other)
VH: VQLVESGGGLIEPGGSLRLSCAASGFSFSDEGMAWVRQAPGKGLEWVSAISSSGGSTYYADSVKGRFTISRDNSKNTVYLQMNSLRAEDTAVYYCVRLPKQCTSPDCETEVSSWGQRTMVTVSS
notes: Human VH single-domain antibody, soluble, amber codons replaced by Glu; In the phage ELISA rows the same VH stood on phage (pIII fusion); not shown: C-terminal c-Myc-His6 tag from vector pSJF2H
binding result (bovine serum albumin): no binding
TRE (%) (ratio of KDn to KDref) (protein A [4]): 87%
TRE (%) (ratio of KDn to KDref) (protein A [5]): 99%
